Laboratory results as given in article doi:10.1101/2020.06.12.148478 (bioRxiv, 2020).
Blank lines part the entries; values can stand above or below the molecule they belong to.

Assays:
[1] = biological target: TacA (Caulobacter crescentus); assay: SEC-MALS
MST = biological target: the molecule itself; assay: MST
SEC-MALS = biological target: the molecule itself; assay: SEC-MALS
SpbR [2] = biological target: T1, SpbR (Caulobacter crescentus, UniProt Q9A5X4 1-377); assay: SEC-MALS
T1 sequence (looked up): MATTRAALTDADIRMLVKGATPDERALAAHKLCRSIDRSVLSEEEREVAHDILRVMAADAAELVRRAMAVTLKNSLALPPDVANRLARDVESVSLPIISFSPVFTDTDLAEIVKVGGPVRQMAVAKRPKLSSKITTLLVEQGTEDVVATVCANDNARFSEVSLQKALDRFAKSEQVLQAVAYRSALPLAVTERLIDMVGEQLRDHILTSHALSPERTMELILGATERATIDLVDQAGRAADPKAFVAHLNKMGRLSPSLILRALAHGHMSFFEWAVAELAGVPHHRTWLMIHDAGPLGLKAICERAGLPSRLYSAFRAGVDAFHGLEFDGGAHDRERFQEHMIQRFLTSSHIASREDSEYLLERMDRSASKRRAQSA

[3] = biological target: PopA (Caulobacter crescentus); assay: SEC-MALS
SpbR [4] = biological target: T1, SpbR; assay: ITC

stoichiometry N [1]: 2 subunits
Molecule: TacA (natural protein)

stoichiometry N (SpbR [2]): 1 RcdA per SpbR
stoichiometry N (RcdA per PopA) [3]: 1
stoichiometry N (RcdA per TacA chain (1 RcdA : 2 TacA)) [1]: 0.5
Kd (SpbR [4]): 3.3 µM
B1: RcdA (natural protein, Caulobacter crescentus, UniProt A0A0H3CD07 1-169, looked up)
chain: MTEVNAFADTPWRAGVIQDFARSELFDRTFEEGMQLVEETAAYLDGAGRHDSKVLSRNAALGYATESMRLTTRLMQVASWLLVQRAVREGEMPPEAACAEAYRLAEEAPADGPAVEELPFGLMNLLQRSERLYERVRHLDRRMYVESPNEEAPRPVQNQLDRLTAAFGG
modifications: Fluorescin-5-Maleimide on cysteine in the fluorescence polarisation and MST experiments only; unlabelled elsewhere
Kd (MST): 2.9 µM
stoichiometry N (SEC-MALS): 2 subunits
